# Patent US20250066422A1 (published 2025)
# Target: T1, HLA-A*0201 (human)
# T1 construct: MHC monomer first loaded with a UV-sensitive peptide that is cleaved and exchanged for the test peptide; captured on streptavidin; also called peptide-receptive MHC molecules
# Assay: UV-ligand exchange, streptavidin/anti-b2m sandwich ELISA
# Source text: Candidate peptides for the vaccines according to the present invention were further tested for immunogenicity by in vitro priming assays. The individual peptide-MHC complexes required for these assays were produced by UV-ligand exchange, where a UV-sensitive peptide is cleaved upon UV-irradiation, and exchanged with the peptide of interest as analyzed. Only peptide candidates that can effectively bind and stabilize the peptide-receptive MHC molecules prevent dissociation of the MHC complexes. To determine the yield of the exchange reaction, an ELISA was performed based on the detection of the light chain (β2m) of stabilized MHC complexes.
# 96 well MAXISorp plates (NUNC) were coated over night with 2ug/ml streptavidin in PBS at room temperature, washed 4× and blocked for 30 min at 37° C. in 2% BSA containing blocking buffer. Refolded HLAA*0201/MLA-001 monomers served as standards, covering the range of 8-500 ng/ml. Peptide-MHC monomers of the UV-exchange reaction were diluted 100 fold in blocking buffer. Samples were incubated for 1 h at 37° C., washed four times, incubated with 2ug/ml HRP conjugated anti-β2m for 1 h at 37° C., washed again and detected with TMB solution that is stopped with […]. Absorption was measured at 450 nm.
row,Binder,Average exchange yield in % [%]
1,VLFPNLKTV (synthetic peptide from BNC1) [BNC1-001],43
2,TLWYRAPEV (synthetic peptide from CDK4/CDK6) [CDK4-001],45
3,AVVEFLTSV (synthetic peptide from DROSHA) [DROSHA-001],68
4,ALLRTVVSV (synthetic peptide from GALNT2) [GALNT2-001],73
5,"YLIHFPVSV (synthetic peptide from AKR1C1, AKR1C2) [AKR-001]",13
6,RLLDSVSRL (synthetic peptide from LAMC2) [LAMC2-001],61
7,SLYKGLLSV (synthetic peptide from RAD54B) [RAD54B-001],48
8,FLVDGSWSV (synthetic peptide from COL12A1) [COL12A1-002],55
9,ALFPHLLQPV (synthetic peptide from CSE1L) [CSE1-001],55
10,AIMGFIGFFV (synthetic peptide from SEC61G) [SEC61G-001],18
11,SLFGNSGILENV (synthetic peptide from CEP192) [CEP192-001],56
12,GVLENIFGV (synthetic peptide from PCNXL3) [PCNXL3-001],87
13,ALMDKEGLTAL (synthetic peptide from TANC2) [TANC2-001],71
14,KILEDVVGV (synthetic peptide from TPX2) [TPX2-001],56
15,RLLGPSAAADILQL (synthetic peptide from HUWE1) [HUWE1-001],45
16,KLVEFDFLGA (synthetic peptide from TACC3) [TACC3-001],54
